Measurements from patent US20200062829A1 (PANASONIC INTELLECTUAL PROPERTY MANAGEMENT, published 2020).

Biological target: T1, VLP noro antigen derived from the norovirus GII/4, composed by associating 90 dimers of VP1 each including … (norovirus GII/4, UniProt P54635 1-539)
T1 construct: Virus-like particle of 90 VP1 dimers (180 copies); also called solid phase VLP
T1 chain: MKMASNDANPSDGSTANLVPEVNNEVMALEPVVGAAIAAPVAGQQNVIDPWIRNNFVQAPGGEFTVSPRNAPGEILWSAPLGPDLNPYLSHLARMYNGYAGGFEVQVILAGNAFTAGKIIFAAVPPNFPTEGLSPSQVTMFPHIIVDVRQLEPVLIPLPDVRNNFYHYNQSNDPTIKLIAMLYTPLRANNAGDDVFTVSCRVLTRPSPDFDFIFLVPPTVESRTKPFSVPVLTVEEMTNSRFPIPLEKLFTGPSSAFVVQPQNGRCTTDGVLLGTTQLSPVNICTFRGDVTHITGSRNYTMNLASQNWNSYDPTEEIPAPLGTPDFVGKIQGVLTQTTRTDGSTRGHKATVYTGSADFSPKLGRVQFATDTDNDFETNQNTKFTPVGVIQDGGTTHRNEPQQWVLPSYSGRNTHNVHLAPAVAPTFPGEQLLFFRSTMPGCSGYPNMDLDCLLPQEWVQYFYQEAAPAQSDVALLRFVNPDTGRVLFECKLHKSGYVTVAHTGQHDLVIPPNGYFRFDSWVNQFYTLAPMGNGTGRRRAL
Experiment: SPR (T200, CM3), VLP noro antigen immobilised, antibody as analyte

B1: Antibody bound to the protein represented by SEQ ID NO: 100 (structural domain SEQ ID NO: 38 - linker - protein molecule SEQ ID NO: 44) (VHH)
chain: QVQLVESGGGVVQTGGSLRLSCAASGSTFSIGAMGWYRQAPGKQRELVATVNRASRTIYADSVRGRFTISRDNAKNLVYLQMNNLKPEDTAVYYCNVIATSASGRGVTSTSWGQGSQVTVSSGGGGSGGGASGGGGSQVQLVESGGGLVQAGKSLRLSCTASGSIPSIGVMGWHRQAPGKQRELVATISQGGHINYFESVKGRFTISRDNAKNTVYLQMNSLKPEDTGVYYCNAFWLPLRLNDYWGQGTQVTVSSEPKTPKPQSASAA
notes: tags not described
In the case of B1, the Kd is reported as 2.38 nM, the koff is reported as 0.00698 s⁻¹ and the kon is reported as 2.93e+06 M⁻¹ s⁻¹.

B2: Antibody bound to the protein represented by SEQ ID NO: 102 (N to C: protein molecule SEQ ID NO: 44 - linker - structural domain SEQ ID NO: 39) (VHH)
chain: QVQLVESGGGLVQAGKSLRLSCTASGSIPSIGVMGWHRQAPGKQRELVATISQGGHINYFESVKGRFTISRDNAKNTVYLQMNSLKPEDTGVYYCNAFWLPLRLNDYWGQGTQVTVSSGGGGSGGGASGGGGSQLQLVESGGGLVQAGGSLRLSCVASGFPFASSAMAWFRQAPGKEREFVASISYRGITTYYAQPVKGRFTMSRDNAKNTVYLQMNSLKPEDTAVYYCYAKSIWGNAYWGQGTQVTVSPEPKTPKPQSASAA
notes: One chain; Made in E. coli; tags not described
Binder B2 has a Kd of 10.2 nM, a koff of 0.0109 s⁻¹ and a kon of 1.07e+06 M⁻¹ s⁻¹.

B3: VHH antibody consisting of the amino acid sequence represented by SEQ ID NO: 67 (monomer antibody; includes the structural domain SEQ ID NO: 39) (VHH)
VHH: QLQLVESGGGLVQAGGSLRLSCVASGFPFASSAMAWFRQAPGKEREFVASISYRGITTYYAQPVKGRFTMSRDNAKNTVYLQMNSLKPEDTAVYYCYAKSIWGNAYWGQGTQVTVSP
notes: also called Monomer Antibody 67
B3 gave a koff of 0.0194 s⁻¹.
